From the RNAGym collection of RNA variant scans (doi:10.1073/pnas.2313332121)

B1: TPR t1 (parent)
chain: GACCAAUCUGCCCUCAGAGCUCGAGAACAUCUUCGGAUGCAGAGGAGGCAGGCUUCGGUGGCGCGAUAGCGCCAACGUCCUCAACCUCCAAUGCAUCCCACCACAUGAUGAUGCCUGAAGAGCCUUGGUUUUUUG

Variants of: B1
Assay: polymerase ribozyme fitness, log enrichment relative to wild type (log ratio); higher = more active; in vitro selection for triplet polymerase activity
Method in brief: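 Each subunit of a heterodimeric triplet polymerase ribozyme was represented by a PCR-built, transcribed mutant library that underwent triplicate single-round in vitro selection with frozen incubation at −7 °C. Extended constructs were recovered by gel excision, streptavidin-bead capture and RT-PCR, and Illumina sequencing of input and output libraries kept genotypes with ≥10 input reads and ≥1 read per output. Fitness is the logarithm of genotype enrichment relative to wild-type enrichment, from inverse-variance-weighted replicate averages, with a logarithm base of 2.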

Variant | polymerase ribozyme fitness (log ratio)
GACCAAUCUGCCCUCAGAGCUCGAGAACAUCUUCGGAUGCAGAGGAGGCAGGCUUCGGUGGCGCGAUAGCGCCAACGUCCUCAACCUCCAAUGCAUCCCACCACAUGAUGAUGCCAGAAGUGCCUUGGUUUUUUG [U116A A121U] | -0.72
GACCAAUCUGCCCUCAGAGCUCGAGAACAUCUUCGGAUGCAGAGGAGGCAGGCUUCGGUGGCGCGAUAGCGCCAACGUCCUCAACCUCCAAUGCAUCCCACCACAUGAUGAUGCCUAAAUAGCCUUGGUUUUUUG [G117A G120U] | -1.9
GACCAAUCUGCCCUCAGAGCUCGAGAACAUCUUCGGAUGCAGAGGAGGCAGGCUUCGGUGGCGCGAUAGCGCCAACGUCCUCAACCUCCAAUGCAUCCCACCACAUGAUGAUGCGUGAAGAGCCAUGGUUUUUUG [C115G U125A] | -1.66
GACCAAUCUGCCCUCAGAGCUCGAGAACAUCUUCGGAUGCAGAGGAGGCAGGCUUCGGUGGCGCGAUAGCGCCAACGUCCUCAACCUCCAAUGCAUCCCACCACAUGAUGAUGCCUAAAGAGCCUUGGUUAUUUG [G117A U131A] | -1.59
GACCAAUCUGCCCUCAGAGCUCGAGAACAUCUUCGGAUGCAGAGGAGGCAGGCUUCGGUGGCGCGAUAGCGCCAACGUCCUCAACCUCCAAUGCAUCCCACCACAUGAUGAUGCCUCAAGAGCCUUAGUUUUUUG [G117C G127A] | -6.44
GACCAAUCUGCCCUCAGAGCUCGAGAACAUCUUCGGAUGCAGAGGAGGCAGGCUUCGGUGGCGCGAUAGCGCCAACGUCCUCAACCUCCAAUGCAUCCCACCACAUGAUGAUGCCUCAAGAGCCUUCGUUUUUUG [G117C G127C] | -5.04
GACCAAUCUGCCCUCAGAGCUCGAGAACAUCUUCGGAUGCAGAGGAGGCAGGCUUCGGUGGCGCGAUAGCGCCAACGUCCUCAACCUCCAAUGCAUCCCACCACAUGAUGAUGCCUAAGGAGCCUUGGUUUUUUG [G117A A119G] | 1.29
GACCAAUCUGCCCUCAGAGCUCGAGAACAUCUUCGGAUGCAGAGGAGGCAGGCUUCGGUGGCGCGAUAGCGCCAACGUCCUCAACCUCCAAUGCAUCCCACCACAUGAUGAUGCCUCAAGAGCCUUGGAUUUUUG [G117C U129A] | -6.61
GACCAAUCUGCCCUCAGAGCUCGAGAACAUCUUCGGAUGCAGAGGAGGCAGGCUUCGGUGGCGCGAUAGCGCCAACGUCCUCAACCUCCAAUGCAUCCCACCACAUGAUGAUGCAUGAAGAGCCUUGGUUUUUUG [C115A] | -0.202
GACCAAUCUGCCCUCAGAGCUCGAGAACAUCUUCGGAUGCAGAGGAGGCAGGCUUCGGUGGCGCGAUAGCGCCAACGUCCUCAACCUCCAAUGCAUCCCACCACAUGAUGAUGCGUGAAGAGCCUUGGUUUUUUG [C115G] | -1.59
GACCAAUCUGCCCUCAGAGCUCGAGAACAUCUUCGGAUGCAGAGGAGGCAGGCUUCGGUGGCGCGAUAGCGCCAACGUCCUCAACCUCCAAUGCAUCCCACCACAUGAUGAUGCUUGAAGAGCCUUGGUUUUUUG [C115U] | -0.935
GACCAAUCUGCCCUCAGAGCUCGAGAACAUCUUCGGAUGCAGAGGAGGCAGGCUUCGGUGGCGCGAUAGCGCCAACGUCCUCAACCUCCAAUGCAUCCCACCACAUGAUGAUGCCUAAAGAGCCUUGGGUUUUUG [G117A U129G] | -4.37
GACCAAUCUGCCCUCAGAGCUCGAGAACAUCUUCGGAUGCAGAGGAGGCAGGCUUCGGUGGCGCGAUAGCGCCAACGUCCUCAACCUCCAAUGCAUCCCACCACAUGAUGAUGCAUGAAGAGCCUUGAUCUUUUG [C115A G128A U130C] | -0.444
GACCAAUCUGCCCUCAGAGCUCGAGAACAUCUUCGGAUGCAGAGGAGGCAGGCUUCGGUGGCGCGAUAGCGCCAACGUCCUCAACCUCCAAUGCAUCCCACCACAUGAUGAUGCCCGAAGAGCCUUGGGUUCUUG [U116C U129G U132C] | -3.87
GACCAAUCUGCCCUCAGAGCUCGAGAACAUCUUCGGAUGCAGAGGAGGCAGGCUUCGGUGGCGCGAUAGCGCCAACGUCCUCAACCUCCAAUGCAUCCCACCACAUGAUGAUGUCUGAAGAGCCUUGGCUUUUUG [C114U U129C] | -3.79
GACCAAUCUGCCCUCAGAGCUCGAGAACAUCUUCGGAUGCAGAGGAGGCAGGCUUCGGUGGCGCGAUAGCGCCAACGUCCUCAACCUCCAAUGCAUCCCACCACAUGAUGAUGCCUCAAGUGCCUUGGUUUUUUG [G117C A121U] | -3
GACCAAUCUGCCCUCAGAGCUCGAGAACAUCUUCGGAUGCAGAGGAGGCAGGCUUCGGUGGCGCGAUAGCGCCAACGUCCUCAACCUCCAAUGCAUCCCACCACAUGAUGAUGCCUCAAGAGCCUUGGUUGUUUG [G117C U131G] | -4.4
GACCAAUCUGCCCUCAGAGCUCGAGAACAUCUUCGGAUGCAGAGGAGGCAGGCUUCGGUGGCGCGAUAGCGCCAACGUCCUCAACCUCCAAUGCAUCCCACCACAUGAUGAUGUCUGAAGAGCAUUGGUUUUUUG [C114U C124A] | -1.04
GACCAAUCUGCCCUCAGAGCUCGAGAACAUCUUCGGAUGCAGAGGAGGCAGGCUUCGGUGGCGCGAUAGCGCCAACGUCCUCAACCUCCAAUGCAUCCCACCACAUGAUGAUGCUUGAACAGCCUUGGUUUUUUG [C115U G120C] | -0.978
GACCAAUCUGCCCUCAGAGCUCGAGAACAUCUUCGGAUGCAGAGGAGGCAGGCUUCGGUGGCGCGAUAGCGCCAACGUCCUCAACCUCCAAUGCAUCCCACCACAUGAUGAUGCCCGAGGAGCCUUGGUUUUUUG [U116C A119G] | 1.96
GACCAAUCUGCCCUCAGAGCUCGAGAACAUCUUCGGAUGCAGAGGAGGCAGGCUUCGGUGGCGCGAUAGCGCCAACGUCCUCAACCUCCAAUGCAUCCCACCACAUGAUGAUGCCUCAAGAGCCUUGGUUUUUUU [G117C G135U] | -3.37
